# Measured values: patent publication US20180141988A1 (Pieris, published 2018)
# Changes are numbered by the printed parent chain.
# B1: lipocalin mutein of SEQ ID NO: 5 (designed binder)
# chain: QDSTSDLIPAPPLSKVPLQQNFQDNQFQGKWYVVGVAGNALLREDKDPLKMRATIYELKEDKSYDVTVVSFWRKKCHYKIGTFVPGSQPGEFTLGDIKSGPGQTSNLVRVVSTNYNQHAMVFFKEVRQNREWFAITLYGRTKELTSELKENFIRFSKSLGLPENHIVFPVPIDQCIDGSAWSHPQFEK
# notes: hNGAL (Lcn2) mutein; also called optimized GPC3 specific lipocalin mutein
# B2: lipocalin mutein of SEQ ID NO: 3 (designed binder)
# chain: B1 chain with Q28H, L41M, D65N, V68G
# notes: hNGAL (Lcn2) mutein; also called non-optimized GPC3-specific Lcn2 mutein; mother clone
# B3: lipocalin mutein of SEQ ID NO: 6 (designed binder)
# chain: B1 chain with A40V, L41R, L49P, V68G, W72R, R73G, Q103E, A134F
# notes: as for B1
# B4: lipocalin mutein of SEQ ID NO: 7 (designed binder)
# chain: B1 chain with A40G, L41M, V68S, S70A, W72R, R73N, D96Q, Q103E, A134F
# notes: as for B1
# B5: lipocalin mutein of SEQ ID NO: 8 (designed binder)
# chain: QDSTSDLIPAPPLSKVPLQQNFQDNQFQGKWYVVGRAGNVGLREDKDPPKMWATIYELKEDKSYDVTNVRFARKKCLYSIGTFVPGSQPGEFTLGQIKSEPGNTANLVRVVSTNYNQHAMVFFKEVYQNREIFFIILYGRTKELTSELKENFIRFSKSLGLPENHIVFPVPIDQCIDGSAWSHPQFEK
# notes: as for B1
# B6: lipocalin mutein of SEQ ID NO: 4 (designed binder)
# chain: B5 chain with Q28H, G41A, W52R, D65N, R73M, L77M, A105S, I136T
# notes: as for B2
# B7: lipocalin mutein of SEQ ID NO: 9 (designed binder)
# chain: B5 chain with L77T, N103G
# notes: as for B1
# B8: lipocalin mutein of SEQ ID NO: 10 (designed binder)
# chain: B5 chain with V40G, G41A, L77V, Q96P, N106S
# notes: as for B1
# B9: lipocalin mutein of SEQ ID NO: 11 (designed binder)
# chain: B5 chain with G41A, W52R, N68A, Q96R, N103Y
# notes: as for B1
# B10: lipocalin mutein of SEQ ID NO: 12 (designed binder)
# chain: B5 chain with G41A, W52R, R70V, R73G, L77K, Q96R, E100P
# notes: as for B1
# B11: lipocalin mutein of SEQ ID NO: 13 (designed binder)
# chain: B5 chain with V40L, L77M, N103S, I136T
# notes: as for B1
# B12: lipocalin mutein of SEQ ID NO: 14 (designed binder)
# chain: B5 chain with R73G, C76V, L77K, S79T, N106T, I136T, C175A
# notes: as for B1
# B13: lipocalin mutein of SEQ ID NO: 15 (designed binder)
# chain: B5 chain with W52R, N68G, A72G, R73E, C76I, L77K, E100Q, N103D, C175A
# notes: as for B1
# B14: lipocalin mutein of SEQ ID NO: 16 (designed binder)
# chain: B5 chain with W52R, N68G, A72D, R73S, C76V, L77T, C175A
# notes: as for B1
# B15: negative control lipocalin (SEQ ID NO: 2) (other)
# chain: QDSTSDLIPAPPLSKVPLQQNFQDNQFHGKWYVVGLAGNAILREDKDPQKMYATIYELKEDKSYNVTSVLFRKKKCDYWIRTFVPGSQPGEFTLGNIKSYPGLTSYLVRVVSTNYNQHAMVFFKKVSQNREYFKITLYGRTKELTSELKENFIRFSKSLGLPENHIVFPVPIDQCIDG
# Target: T1, murine GPC3 (6938-GP; R&D systems), biotinylated (murine, UniProt Q8CFZ4 25-558, limits assumed, biotinylated using standard NHS chemistry)
# T1 construct: Bought protein; also called mouse GPC3
# Test: SPR (Biacore T200), biotinylated GPC3 captured on chip, mutein in flow
# Experimental: (§1) SPR analysis of the binding of the optimized Lcn2 muteins to human and mouse GPC3 was performed at 25° C. on a Biacore T200 instrument (GE Healthcare) using HBS-EP+ (1x; BR-1006-69; GE Healthcare) as running buffer. The Biotin CAPture Kit (GE Healthcare) was used to immobilize biotinylated GPC3 to a chip surface. Human GPC3 (2119-GP; R&D systems) and murine GPC3 (6938-GP; R&D systems) were biotinylated using standard NHS chemistry. Undiluted Biotin CAPture Reagent (streptavidin conjugated with ss-DNA oligo) was captured on a Sensor Chip CAP with the pre-immobilized complementary ss-DNA oligo. Thereafter, biotinylated human or murine GPC3 at 1 μg/ml was applied for 300 s at a flow rate of […].
# (§2) Lcn2 muteins were applied in concentrations of 10 nM, 40 nM and 160 nM at a flow rate of 30 μL/min. The dilutions were injected with association times of 180 s and dissociation times of 600 s to obtain ka and kd information. Regeneration of the chip surface was achieved by injecting 6 M Guanidinium-HCl+0.25 M NaOH (120 s) with a flow rate of 10 μL/min. Injection of regeneration solutions was followed by an extra wash step with H₂O and a stabilization period of 120 s.
# (§3) The data were double-referenced by subtraction of the corresponding signals measured for the control channel (loaded with Biotin CAPture reagent only) and by subtraction of buffer injections from the binding responses. Association rate constant ka and dissociation rate constant kd for the binding reaction were determined using Biacore T200 Evaluation Software V2.0 for data processing and kinetic fitting. The data were globally fit with 1:1 binding model.
# T1 sequence (Q8CFZ4 25-558 limits assumed): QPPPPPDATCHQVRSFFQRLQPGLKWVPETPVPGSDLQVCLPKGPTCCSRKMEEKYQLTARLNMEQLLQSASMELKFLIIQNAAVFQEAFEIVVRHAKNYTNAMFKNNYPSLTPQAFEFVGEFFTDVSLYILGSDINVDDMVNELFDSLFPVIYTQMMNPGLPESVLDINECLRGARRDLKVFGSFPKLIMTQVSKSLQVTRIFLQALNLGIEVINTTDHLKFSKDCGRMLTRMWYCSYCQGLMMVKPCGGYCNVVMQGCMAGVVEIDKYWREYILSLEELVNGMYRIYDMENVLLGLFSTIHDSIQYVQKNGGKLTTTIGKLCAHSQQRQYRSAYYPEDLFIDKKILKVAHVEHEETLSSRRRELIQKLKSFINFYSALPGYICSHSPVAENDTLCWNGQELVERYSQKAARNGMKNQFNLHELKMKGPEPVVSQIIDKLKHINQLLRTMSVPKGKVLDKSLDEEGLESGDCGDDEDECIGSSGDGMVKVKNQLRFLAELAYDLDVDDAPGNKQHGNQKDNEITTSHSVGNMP
Binder,Kd [nM],koff [s⁻¹],kon [M⁻¹ s⁻¹]
B1,0.207,0.00026,1.3e+06
B2,0.674,0.0003,450000
B3,0.019,4.2e-05,2.2e+06
B4,0.145,0.00015,1e+06
B5,0.096,0.00018,1.9e+06
B6,1.09,0.0028,2.6e+06
B7,0.075,0.00015,2e+06
B8,0.093,0.00017,1.8e+06
B9,0.011,3.2e-05,2.9e+06
B10,0.058,0.0003,5.1e+06
B11,0.09,0.00024,2.7e+06
B12,1.59,0.0031,2e+06
B13,0.072,9.1e-05,1.3e+06
B14,0.311,0.00019,610000

# Target: T2, Human GPC3 (2119-GP; R&D systems), biotinylated (human, UniProt P51654 25-559, biotinylated using standard NHS chemistry)
# T2 construct: Bought protein; also called human Glypican-3
# Test: as above
# Experimental: as §1, §2, §3
# T2 sequence (P51654 25-559 limits assumed): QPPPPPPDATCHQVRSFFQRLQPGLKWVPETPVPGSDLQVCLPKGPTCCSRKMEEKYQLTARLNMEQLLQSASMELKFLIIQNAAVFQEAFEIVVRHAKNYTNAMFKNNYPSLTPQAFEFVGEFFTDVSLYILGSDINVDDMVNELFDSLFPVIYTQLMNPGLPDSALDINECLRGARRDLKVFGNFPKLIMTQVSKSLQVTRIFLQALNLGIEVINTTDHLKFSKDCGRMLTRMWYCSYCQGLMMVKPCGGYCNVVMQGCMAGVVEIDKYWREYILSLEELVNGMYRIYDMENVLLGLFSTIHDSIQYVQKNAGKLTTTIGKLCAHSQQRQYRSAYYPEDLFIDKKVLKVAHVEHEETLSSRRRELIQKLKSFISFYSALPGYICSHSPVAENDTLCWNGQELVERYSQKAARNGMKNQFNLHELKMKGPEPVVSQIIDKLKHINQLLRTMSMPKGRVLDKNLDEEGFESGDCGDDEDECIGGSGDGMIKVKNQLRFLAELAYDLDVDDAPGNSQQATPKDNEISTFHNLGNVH
Binder,Kd [nM],koff [s⁻¹],kon [M⁻¹ s⁻¹]
B1,0.119,0.0002,1.6e+06
B2,0.387,0.00022,560000
B3,0.019,3.3e-05,1.8e+06
B4,0.097,0.00013,1.3e+06
B5,0.068,0.00013,2e+06
B6,0.877,0.0022,2.5e+06
B7,0.054,9.8e-05,1.8e+06
B8,0.063,0.00012,1.8e+06
B9,0.027,4.6e-05,1.7e+06
B10,0.037,0.00024,6.5e+06
B11,0.07,0.00018,2.6e+06
B12,0.819,0.002,2.4e+06
B13,0.035,4.9e-05,1.4e+06
B14,0.171,0.00011,670000

# Target: T3, cynomolgus GPC3 on stably transfected SK-HEP-1 cells (cynomolgus, UniProt A0A2K5VK50 24-553)
# T3 construct: whole, on cells; also called SK-HEP-1::cyno GPC3; SK-HEP-1::cynomolugus GPC3
# Test: MSD-based (ECL) cell binding assay on transfected SK-HEP-1 cells
# Experimental: (§4) Binding of optimized lipocalin muteins of SEQ ID NOs: 5-16 to human, cynomolgus and mouse GPC3 compared to SEQ ID NOs: 3 and 4 was tested on SK-HEP-1 cells using an ECL format (FIG. 1). In this experiment, dilution series of lipocalin muteins were incubated on MSD plates coated with human, cynomolgus or mouse GPC3 overexpressing SK-HEP-1 cells.
# (§5) SEQ ID NOs: 3, 4, 5, 7, 8, 9, 10, 12, 13, 14, 15 and 16 (using 1000 nM as starting concentration) were serially diluted at a 1:3 ratio down to the picomolar range in PBS/Casein. 20 μl of the dilution series were transferred to the SK-HEP-1-coated plates for 1 hour at room temperature.
# (§6) To allow for detection and quantification of bound GPC3 specific lipocalin muteins, the residual supernatants were discarded and 20 μl of a mixture of rabbit anti scaffold antibody (2 μg/ml) and Sulfotag labelled anti rabbit antibody (5 μg/ml) prepared in PBS/casein was added to the wells and incubated for 1 h at RT. After washing, 35 μl surfactant-free reading buffer was added to each well and the ECL intensity of every well was read using a MSD reader.
row,Binder,EC50 [nM]
1,B1,33.9
2,B2,29.9
3,B4,2.8
4,B5,2.3
5,B6,5.7
6,B7,1.9
7,B8,0.8
8,B10,1.7
9,B11,0.6
10,B12,15.4
11,B13,1.6
12,B14,2.5

# Target: T4, human GPC3 on stably transfected SK-HEP-1 cells (human, UniProt P51654 25-554)
# T4 construct: whole, on cells; also called SK-HEP-1::human GPC3
# Test: as above
# Experimental: as §4, §5, §6
# T4 sequence (P51654 25-554 limits assumed): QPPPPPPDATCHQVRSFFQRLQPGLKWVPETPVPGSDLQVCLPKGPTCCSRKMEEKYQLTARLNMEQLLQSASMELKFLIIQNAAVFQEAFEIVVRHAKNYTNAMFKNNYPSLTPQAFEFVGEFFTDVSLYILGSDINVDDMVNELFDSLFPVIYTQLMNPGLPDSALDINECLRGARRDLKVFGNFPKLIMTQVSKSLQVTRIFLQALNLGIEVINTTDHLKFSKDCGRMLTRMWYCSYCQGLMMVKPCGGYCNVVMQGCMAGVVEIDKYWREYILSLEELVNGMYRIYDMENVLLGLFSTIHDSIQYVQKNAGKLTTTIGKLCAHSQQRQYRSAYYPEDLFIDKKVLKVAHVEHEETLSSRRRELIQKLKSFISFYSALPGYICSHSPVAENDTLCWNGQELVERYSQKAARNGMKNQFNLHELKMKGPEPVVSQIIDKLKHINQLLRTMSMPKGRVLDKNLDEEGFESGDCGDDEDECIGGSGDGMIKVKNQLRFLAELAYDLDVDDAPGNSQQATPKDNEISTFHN
row,Binder,EC50 [nM]
1,B1,24.1
2,B2,24.3
3,B4,2.5
4,B5,1.4
5,B6,10.2
6,B7,1.1
7,B8,0.8
8,B10,2
9,B11,0.9
10,B12,9.5
11,B13,1.6
12,B14,2.2

# Target: T5, mouse GPC3 on stably transfected SK-HEP-1 cells (mouse, UniProt Q8CFZ4 25-553)
# T5 construct: whole, on cells; also called SK-HEP-1::mouse GPC3; murine GPC3
# Test: as above
# Experimental: as §4, §5, §6
# T5 sequence (Q8CFZ4 25-553 limits assumed): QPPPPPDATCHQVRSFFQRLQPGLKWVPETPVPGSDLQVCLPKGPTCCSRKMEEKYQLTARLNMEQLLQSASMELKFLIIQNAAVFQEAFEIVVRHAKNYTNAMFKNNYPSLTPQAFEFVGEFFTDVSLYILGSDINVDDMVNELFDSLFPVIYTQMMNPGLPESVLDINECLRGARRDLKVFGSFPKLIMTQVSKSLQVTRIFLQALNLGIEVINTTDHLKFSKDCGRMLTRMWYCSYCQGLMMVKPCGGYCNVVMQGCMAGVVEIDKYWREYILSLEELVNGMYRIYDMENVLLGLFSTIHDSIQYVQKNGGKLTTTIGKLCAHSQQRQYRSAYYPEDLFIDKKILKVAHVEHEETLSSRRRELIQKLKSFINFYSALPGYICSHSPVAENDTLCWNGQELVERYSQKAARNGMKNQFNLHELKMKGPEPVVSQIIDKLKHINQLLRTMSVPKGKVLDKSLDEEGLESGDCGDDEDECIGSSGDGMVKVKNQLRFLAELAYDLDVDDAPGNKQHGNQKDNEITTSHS
row,Binder,EC50 [nM]
1,B1,25.6
2,B2,29.8
3,B4,4.8
4,B5,5.3
5,B6,7.1
6,B7,4.1
7,B8,3.8
8,B10,5.3
9,B11,2.9
10,B12,6.7
11,B13,4.8
12,B14,4.4

# Target: T4, human GPC3 on stably transfected …
# Test: MSD-based (ECL) cell binding assay on immobilized SK-HEP-1 cells transfected with human GPC3; detection with rabbit anti-scaffold antibody and Sulfotag-labelled anti-rabbit antibody
# Experimental: as §4, §5, §6
row,Binder,binding result
1,B15,no binding (tested: 1000 nM)
